Legend:
[1] = molecular target: T1, peptide sequence WNSQKDILEQKRG of the HLA-DR β-chain (human); test: peptide microarray of overlapping HLA-DR52 β chain peptides
T1 construct: on the microarray as overlapping 8- to 12-mers
T1 peptide: WNSQKDILEQKRG
Procedure: (§1) Overlapping peptides consisting of 8 to 12 amino acids shifted by one amino acid were chemically synthesized from their C termini on an array using the amino acid sequence of an HLA-DR52 β chain having the highest homology as a result of analysis using software Mascot (Shimadzu Techno-Research, Inc.) to prepare a peptide microarray (LC Sciences, LLC, Texas, US). First, the array was blocked by immersion overnight at 4° C. in a SuperBlock (pH 7.0) (Pierce Biotechnology Inc.) solution containing 0.05% Tween-20 to prevent nonspecific antibody binding. […] The array was washed with the washing solution for 20 minutes and then incubated at 25° C. for 1 hour in a 10 ng/mL Cy5-labeled goat anti-mouse IgG antibody solution. Cy5 was assayed at a wavelength of 635 nm using a microarray scanner (PMT 700 V). Since nonspecific binding to a peptide sequence having a C-terminal tryptophan residue was observed, this sequence was omitted and peptide sequences showing specific binding were then analyzed. […] A peptide sequence ([…]: SEQ ID NO: 2) of the HLA-DR β-chain to which an antibody described in WO2003/033538 bind is located 6 amino acid residues before the second N-terminal cysteine residue.

#25 = molecular target: T2, #25 (human); test: SPOTs peptide membrane (HLA-DR epitope peptide library)
T2 peptide: WNSQKDFLERRRA

#34 = molecular target: T3, #34 (human); test: as above
T3 peptide: WNSQKDLLEQRRA

#38 = molecular target: T4, #38 (human); test: as above
T4 peptide: WNSQKDLLERRRA

DR12-2 = molecular target: T5, DR12-2 (human); test: SPOTs peptide membrane, biotinylated 4713 antibody 1 µg/mL
T5 construct: HLA-DR12 overlapping peptide on SPOTs membrane
T5 peptide: SSLAALTVTLMVLSS
Procedure: (§2) In order to reconfirm the results obtained using the peptide microarray, HLA-DR expressed by L428 cells was analyzed. […] Next, overlapping peptides were synthesized from the amino acid sequence of HLA-DR12 to prepare a custom SPOTs nitrocellulose membrane (Sigma-Aldrich Corp.). The membrane was rinsed with methanol for 5 minutes, then washed with a […] (TBS), and incubated at room temperature for 2 hours for blocking. […] The membrane was washed and then incubated for 2 hours in a solution of peroxidase (HRP)-labeled streptavidin (manufactured by Dako Japan Inc.) diluted 3000-fold with TBS. After washing, positive spots were detected using ECL Prime Western Blotting Detection kit (manufactured by GE Healthcare Japan Corp.) and a chemiluminescence detector (LAS-4000) (Table 3). As a result, the most strongly reacted peptide was DR12-26, followed by DR12-6 and DR12-13. […] Although an HLA-DR12-derived peptide to which the antibody described in WO2003/033538 binds was also arrayed as DR12-28, no binding was seen (Table 3).

DR12-3 = molecular target: T6, DR12-3 (human); test: as above
T6 construct: HLA-DR12 overlapping peptide on SPOTs membrane
T6 peptide: LMVLSSRLAFAGDTR
Procedure: as §2

DR12-4 = molecular target: T7, DR12-4 (human); test: as above
T7 construct: HLA-DR12 overlapping peptide on SPOTs membrane
T7 peptide: FAGDTRPRFLEYSTG
Procedure: as §2

DR12-6 = molecular target: T8, DR12-6 (human); test: as above
T8 peptide: FFNGTERVRLLERHF
Procedure: as §2

DR12-7 = molecular target: T9, DR12-7 (human); test: as above
T9 construct: HLA-DR12 overlapping peptide on SPOTs membrane
T9 peptide: LLERHFHNQEELLRF
Procedure: as §2

DR12-13 = molecular target: T10, DR12-13 (human); test: as above
T10 construct: HLA-DR12 overlapping peptide on SPOTs membrane; also called DR-13
T10 peptide: RHNYGAVESFTVQRR
Procedure: as §2

DR12-14 = molecular target: T11, DR12-14 (human); test: as above
T11 construct: HLA-DR12 overlapping peptide on SPOTs membrane
T11 peptide: FTVQRRVHPKVTVYP
Procedure: as §2

DR12-15 = molecular target: T12, DR12-15 (human); test: as above
T12 construct: HLA-DR12 overlapping peptide on SPOTs membrane
T12 peptide: KVTVYPSKTQPLQHH
Procedure: as §2

DR12-17 = molecular target: T13, DR12-17 (human); test: as above
T13 construct: HLA-DR12 overlapping peptide on SPOTs membrane
T13 peptide: VCSVSGFYPGSIEVR
Procedure: as §2

DR12-25 = molecular target: T14, DR12-25 (human); test: as above
T14 construct: HLA-DR12 overlapping peptide on SPOTs membrane
T14 peptide: WRARSESAQSK
Procedure: as §2

DR12-26 = molecular target: T15, DR12-26 (human); test: as above
T15 construct: HLA-DR12 peptide on SPOTs membrane; also called DR-26
T15 peptide: RNQKGHSGLQPRGFLS
Procedure: as §2

TRAIL death receptor DR4 = molecular target: T16, TRAIL death receptor DR4 (UniProt O00220 24-468, limits assumed); test: flow cytometry on BHK cells transfected with the DR4 receptor gene
T16 construct: whole, on cells; also called DR4 receptor
T16 sequence (looked up): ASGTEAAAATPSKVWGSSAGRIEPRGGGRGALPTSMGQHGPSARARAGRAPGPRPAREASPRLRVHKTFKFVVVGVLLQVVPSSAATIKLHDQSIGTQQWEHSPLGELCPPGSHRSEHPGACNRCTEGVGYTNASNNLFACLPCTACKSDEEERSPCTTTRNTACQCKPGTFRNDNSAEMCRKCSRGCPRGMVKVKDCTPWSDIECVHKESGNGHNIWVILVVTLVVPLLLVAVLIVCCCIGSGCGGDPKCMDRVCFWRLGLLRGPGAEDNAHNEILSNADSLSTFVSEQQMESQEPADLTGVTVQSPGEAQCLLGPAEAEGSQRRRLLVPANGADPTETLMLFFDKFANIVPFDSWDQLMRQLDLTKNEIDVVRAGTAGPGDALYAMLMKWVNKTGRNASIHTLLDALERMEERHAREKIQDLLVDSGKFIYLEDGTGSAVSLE
Procedure: (§3) Hamster-derived BHK cells transfected with the DR4 receptor or DR5 receptor gene were incubated with the antibody of the present invention for 1 hour and analyzed by flow cytometry in the same way as in Example 6.
(§4) In order to confirm whether the antibody of the present invention targets a TNF-related apoptosis inducing ligand (TRAIL) death receptor DR4 or DR5 known as a death receptor (cell death-inducing antigen), the antibody of the present invention was examined for its ability to stain hamster-derived BHK cells transfected with the DR4 receptor or DR5 receptor gene in the same way as above. As a result, the cells were stained by a known antibody against DR4 receptor or DR5 receptor (red line), but not stained by the antibody of the present invention (FIG. 9).

TRAIL death receptor DR5 = molecular target: T17, TRAIL death receptor DR5 (UniProt O14763 56-440, limits assumed); test: flow cytometry on BHK cells transfected with the DR5 receptor gene
T17 construct: whole, on cells; also called DR5 receptor
Procedure: as §3, §4

[2] = molecular target: T18, HLA-DR expressed by L428 cells (human); test: flow cytometry on L428 cells, serially diluted antibody; reference LN3
T18 construct: whole, on cells; The assay is on L428 cells; also called HLA-DR12; HLA-DR on L428 cells
Procedure: The ability of each antibody to bind to L428 cells was analyzed by incubation with each of serially diluted antibody solutions using a flow cytometer. […] For cell death induction, the uptake of propidium iodide (PI) was analyzed using a flow cytometer.

peptide CRHNYGVGESFT = molecular target: T19, peptide CRHNYGVGESFT (human); test: peptide microarray of overlapping HLA-DR52 β chain peptides, 5 µg/mL 4713 mAb
T19 construct: Region of the HLA-DR52 β chain on the peptide microarray (overlapping 8- to 12-mers)
T19 peptide: CRHNYGVGESFT
Procedure: as §1

binding result [1]: no binding (tested: 5 µg/mL)
binding result (#25): binds
binding result (#34): binds
binding result (#38): binds
binding result (DR12-2): binds
binding result (DR12-3): binds
binding result (DR12-4): binds
binding result (DR12-6): binds
binding result (DR12-7): binds
binding result (DR12-13): binds
binding result (DR12-14): binds
binding result (DR12-15): binds
binding result (DR12-17): binds
binding result (DR12-25): binds
binding result (DR12-26): binds
fold lower concentration for binding than LN3 [2]: ~10 times
binding result (peptide CRHNYGVGESFT): binds
B1: 4713 mAb (antibody, mouse IgG1, V domains shown)
VH: DVQLQESGPGLVKPSQSLSLTCTVTGYSITNDYAWNWIRQFPGNKLEWMGYISYNDFTYYNPSLKSRISITRDTSKNQFFLQLNSVTAEDTATYYCVSERLRLVNHVMDYWGQGTSVIVSS
VL: QIVLTQSPPIMSASPGEKVTMTCSASSSVNYMHWHQQKSGTSPKKWIYDTSKLISGVPARFSGSGSGTSYSLTISSVEAEDAATYYCQQWSSYPFTFGSGTKLEIK
modifications: Used biotinylated on the SPOTs membranes; the site is not given.
notes: also called monoclonal antibody of the present invention
binding result (TRAIL death receptor DR4): no binding
binding result (TRAIL death receptor DR5): no binding

Source: US20130236470A1 (JUNTENDO EDUCATINAL FOUNDATION, published 2013)
